Data on 1 molecule can be found in US20130071410A1 (published 2013).

This experiment deals with T1, human CGRP receptor (CRLR + RAMP1) (human, UniProt Q16602 23-461; O60894 27-148).
T1 construct: also called hCGRP R; huCGRP R
The experiment can be described thus: FACS staining of transfected cells.

T1 sequence (Q16602 23-461 limits assumed, chain 1 of 2): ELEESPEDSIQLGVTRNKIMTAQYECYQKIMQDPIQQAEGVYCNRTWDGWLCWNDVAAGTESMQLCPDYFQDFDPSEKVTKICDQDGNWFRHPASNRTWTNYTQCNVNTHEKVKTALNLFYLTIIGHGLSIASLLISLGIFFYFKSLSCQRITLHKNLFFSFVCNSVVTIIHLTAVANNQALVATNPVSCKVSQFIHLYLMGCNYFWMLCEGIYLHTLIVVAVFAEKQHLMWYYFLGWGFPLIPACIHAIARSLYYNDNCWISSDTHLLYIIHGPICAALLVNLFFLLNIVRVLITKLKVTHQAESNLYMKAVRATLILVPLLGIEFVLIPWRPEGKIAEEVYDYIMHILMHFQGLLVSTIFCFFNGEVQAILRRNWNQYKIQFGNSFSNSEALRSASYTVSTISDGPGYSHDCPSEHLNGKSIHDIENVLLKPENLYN
T1 sequence (O60894 27-148 limits assumed, chain 2 of 2): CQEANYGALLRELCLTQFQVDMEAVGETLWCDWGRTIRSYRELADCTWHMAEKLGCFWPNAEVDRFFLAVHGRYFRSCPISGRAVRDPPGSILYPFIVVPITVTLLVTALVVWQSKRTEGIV

With Ac-WVTHRLAGLLSRSGGVVRCNFVPTDVGPFAF-NH2 (also: Alexa 647 label, site not given here, also called Alexa647-CGRP8-37) [Alexa 647-labeled CGRP8-37 peptide analog], the binding result was “binds”.
